Source: patent US20190224291A1 (GENOIMMUNE THERAPEUTICS, published 2019)

Columns and labels:
HLA-A0201 on T2 cells [1] = molecular target: T1, HLA-A0201 on T2 cells (human); assay: T2 cell peptide binding assay, flow cytometry with FITC anti-HLA-A0201, peptide 100 uM
T1 construct: MHC class I on TAP-deficient T2 cells; also called HLA-A2; HLA-A0201 molecule
Procedure: (§1) Cells were collected by centrifugation of the cell culture at 200 g for 5 minutes. The collected cells were washed twice with PBS, and then directly incubated with FITC-conjugated anti-HLA-A0201 monoclonal antibody at 4° C. for 30 minutes. The mean fluorescence intensity (MFI) was then detected and analyzed by flow cytometer (BD FACSJazz™) and its software. The fluorescence index (FI) was calculated by using the following formula:

HLA-A0201 on T2 cells [2] = molecular target: T1, HLA-A0201 on T2 cells; assay: T2 cell peptide binding assay, fluorescence index = (MFI sample - MFI background)/MFI background, peptide 100 uM
Procedure: as §1

| Average fluorescence intensity (HLA-A0201 on T2 cells [1]) | FI (HLA-A0201 on T2 cells [2]) | Binder |
| --- | --- | --- |
| 664 | 1.91 | FLVDGFWSL (Synthetic peptide) [variant peptide FLVDGFWSL] |
| 748 | 2.28 | FMVDGFWSL (Synthetic peptide) [variant peptide FMVDGFWSL] |

Further lines, the binder ahead of its results:

| Binder | Average fluorescence intensity (HLA-A0201 on T2 cells [1]) | FI (HLA-A0201 on T2 cells [2]) |
| --- | --- | --- |
| FMVDGSWSI (Synthetic peptide, purity >90%) [wild-type peptide FMVDGSWSI] | 772 | 2.38 |
| FLVDGFWSV (Synthetic peptide) [variant peptide FLVDGFWSV] | 642 | 1.81 |
| FMVDGFWSV (Synthetic peptide) [variant peptide FMVDGFWSV] | 721 | 2.16 |
| FLVDGFWSI (Synthetic peptide) [variant peptide FLVDGFWSI] | 701 | 2.07 |
